Data as given in the supplement of paper PMC9732359.
± gives the uncertainty stated by the source.

Assay: protein stability index of a GFP-peptide fusion (yeast GPS) (PSI 1-4); higher = more stable; sorted into four equal gates, so the index is relative within each strain
Conditions: pdr5∆
Procedure, shortened: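 The protein stability index of a peptide was calculated by multiplying its read frequency in each gate by that gate's number and adding the products. The peptides were tiled 17-residue stretches of yeast proteins, fused downstream of GFP on a Cherry-expressing plasmid and carried in yeast as a pooled library. Mid-log cultures in leucine-free medium were sorted into four equal gates by GFP/Cherry ratio, and each gate's plasmids were PCR-amplified and Illumina-sequenced.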

Row | Sequence | protein stability index
1 | LKKELKLLAKELEEQES [SMC2] | 3.14 ± 0.063
2 | LKKKVVDPFTRKEWFDI [RPS1B] | 3.18 ± 0.071
3 | LKKLQSDIESANNQEYD [SMC1] | 3.2 ± 0.097
4 | LKLPLEINYAFSMDEEF [SIR3] | 2.18 ± 0.058

Same assay, conditions: san1∆

Row | Sequence | protein stability index
5 | KYLDQVLDHQRAIPFRR [RPL17B] | 1.87 ± 0.13
6 | KYLIKYNVFRQHTSFQE [CSI1] | 1.13 ± 0.14
7 | KYLKKRKIGISIDDHPY [RPC31] | 1.77 ± 0.099
8 | KYLSDIMELPGVYSDDE [SRP68] | 3.59 ± 0.17
9 | KYPMYMQLEEELMKLDG [MED6] | 1.39 ± 0.16
10 | KYSAITSSIFQESFNSV [NUT1] | 2.7 ± 0.047
11 | KYYIVSSSKSMINDENY [SRB8] | 2.43 ± 0.083
12 | LAAMAVLESHWKQDLTK [PUP1] | 2.48 ± 0.21
13 | LAASEIGISIVGRFSTI [ECM29] | 2.88 ± 0.073
14 | LADSLDRCVDPEDPYFN [DIS3] | 3.35 ± 0.076
15 | LADWRIRPLSKPMTAYA [RRP6] | 2.7 ± 0.19
16 | LAEKVEKASRQQRKQKK [RPS24A] | 3.35 ± 0.1
17 | LAGKYIPNLTAKPFQVT [FAS1] | 2.29 ± 0.1
18 | LAINAKTITSGLKYALA [RPB2] | 2.4 ± 0.061
19 | LAKAVAATIGANFIFSP [RPT4] | 1.72 ± 0.088
20 | LALEIIVRPAKGVATTR [RRP46] | 1.86 ± 0.078
21 | LALPVFHIGYFKATIQI [RPO31] | 1.87 ± 0.098
22 | LALSSNISRDFQSYIVS [COR1] | 2.09 ± 0.1
23 | LAMVIIKEFVDDLKKDH [DSN1] | 2.88 ± 0.12
24 | LARASGNYVIIIGHNPD [RPL2A] | 2.85 ± 0.096
25 | LAVIMDNIGEIDESLFN [YCG1] | 3.13 ± 0.059
26 | LAYAVLGIALIALGEDI [RPN1] | 1.98 ± 0.11
27 | LCDNFNHFSLSYKDSGL [COR1] | 2.73 ± 0.067
28 | LCYMAPMTVKLVQLPKS [POP3] | 2.39 ± 0.06
29 | LDDFGEEELFEVTKEED [RRP43] | 2.36 ± 0.12

Row | Sequence | protein stability index
30 | LDDWISIGYETELKKIT [IRR1] | 2.33 ± 0.14
31 | LDKNLIKLVKQNDELKF [RPC34] | 1.43 ± 0.18
32 | LDLMFDEVYVQNSKFLK [YJL039C/NUP192] | 2.87 ± 0.071
33 | LDNLKLKELRIDNSPQA [GRR1] | 2.69 ± 0.07
34 | LDPLEVHMLDFPNIAIR [PRP8] | 2.84 ± 0.051
35 | LDPSLRAPIYHSKFRSS [YML031W/NDC1] | 1.71 ± 0.25
36 | LDQLLVLEKKTRQASDL [RPN5] | 3.1 ± 0.07
37 | LDQVGVPKSIAKTLTYP [RPO21] | 2.65 ± 0.043
38 | LDRELLKPSMSVALHRH [RPT3] | 3.07 ± 0.071
39 | LDRIPMHSYFIFKDLVT [COB] | 1.88 ± 0.12
40 | LDTRKELWRKEQKLQTV [SMC3] | 2.83 ± 0.16
41 | LEEDSKKVNGTSYKKWS [PRP8] | 3.24 ± 0.075
42 | LEFSALSAADIVAQSEV [RPO31] | 3.1 ± 0.071
43 | LEGEELAFYLRRLTAKK [RPS8A] | 1.93 ± 0.1
44 | LEGNDIHALAAKLLQEN [FAS1] | 2.77 ± 0.051
45 | LEGSVSLPRFSKPVLIV [DIS3] | 2.19 ± 0.06
46 | LEHLHSTAFQNTPLSLP [COR1] | 2.35 ± 0.035
47 | LEIDNKDSVTECSKDMK [SIR4] | 3.4 ± 0.12
48 | LEKCEAEFKKRKIEAET [YCS4] | 3.3 ± 0.21
49 | LEKGEIELSDGSTFKVN [YJL039C/NUP192] | 2.83 ± 0.073
50 | LEKLVDHHPEGLSAREA [PRE10] | 2.65 ± 0.067
51 | LELAGMDALYEKIWFAI [SIR3] | 1.21 ± 0.11
52 | LELQVAKTFIDLESSSP [RPS7B] | 2.96 ± 0.11
53 | LELRNSVMDDILEMMPE [PRP8] | 3.15 ± 0.09
54 | LEQDLHFENAKVIDLDT [YIL149C/MLP2] | 2.65 ± 0.23

Row | Sequence | protein stability index
55 | LEQREQNENLPSDKSDS [SSN2] | 3.04 ± 0.057
56 | LERIVQIMQNPTHYKIP [RPS18A] | 2.9 ± 0.065
57 | LESADKQLEKRDYQRIN [POP4] | 2.64 ± 0.065
58 | LESKMSEVGDAFIFGLQ [SMC3] | 3.31 ± 0.041
59 | LEVFHHFFKWIEFIVYH [SRB8] | 1.08 ± 0.17
60 | LEWLENPSNTPDKDYLL [FAS1] | 3.27 ± 0.071
61 | LFGGRHYLFNTFTFTAH [SWP82] | 1.69 ± 0.061
62 | LFIGLFTRPLFVLLEIE [YCS4] | 2.11 ± 0.15
63 | LFKNYRFNFISKYFIID [YMR129W/POM152] | 1.32 ± 0.1
64 | LFLYKELVKAHLGERAA [RPC82] | 2.88 ± 0.061
65 | LFQVESAPKISSEIDRE [SIR4] | 2.37 ± 0.053
66 | LFQVEYSLEAIKLGSTA [PUP2] | 2.08 ± 0.12
67 | LFSLEKPNLNYFKSILL [SWI1] | 1.62 ± 0.082
68 | LFVCNKDPDVPLVLLQQ [POP3] | 2.26 ± 0.11
69 | LGEFSITYTPVRHGRAG [RPS15] | 1.61 ± 0.15
70 | LGGDSDEANIEIDPLTG [BRN1] | 2.92 ± 0.18
71 | LGIKKEKRIQYAKDILQ [RPB2] | 1.64 ± 0.094
72 | LGKGGAKRHRKILRDNI [HHF1] | 3.4 ± 0.19
73 | LGMGKAVEKTLALGCHF [POP7] | 2.6 ± 0.1
74 | LGNEKNQASTSKRVYKI [CDC53] | 2.92 ± 0.096
75 | LGRLNKLRKIAISKKNK [LIN1] | 1.39 ± 0.23
76 | LHGLRSFYDAIFFNIPL [YJL039C/NUP192] | 2.309 ± 0.022
77 | LHLAVGKKWFEVSQFLI [NAS6] | 1.63 ± 0.091
78 | LHPYNSRGLFEKKLMQD [YDL116W/NUP84] | 2.86 ± 0.1
79 | LHVLVAHKLKKSLDSIP [FAS2] | 1.83 ± 0.24

Row | Sequence | protein stability index
80 | LICPQYGTENKDGEDII [CSL4] | 3.12 ± 0.14
81 | LICQNNLNAFVDFSKYN [SRP72] | 3.11 ± 0.044
82 | LIEKLQGFSKDTFELIK [YDL116W/NUP84] | 3.29 ± 0.064
83 | LIFGTIASKMSLAPEAD [RPT3] | 2.75 ± 0.041
84 | LIGSIRFPTKFVTQFRH [RET1] | 1.29 ± 0.16
85 | LIIRCRVVRPKSLDAET [RPO21] | 2.22 ± 0.13
86 | LIKMSRSPPRPPSLKII [PRP28] | 2.3 ± 0.072
87 | LISDSNINNSSVAEKEE [SWI3] | 1.56 ± 0.12
88 | LISSSGPIKTPVGACAT [FAS2] | 1.31 ± 0.098
89 | LITLFNKGELETQPGCN [RPO31] | 2.98 ± 0.097
90 | LITTYSKLSKNISFYKL [SIN4] | 2.24 ± 0.11
91 | LKAKNQEEEGELEHLTK [DSN1] | 3.31 ± 0.047
92 | LKDIVGQTSRTVTPAPN [ITC1] | 2.9 ± 0.049
93 | LKDLMDLCDVVESKFTE [RPC19] | 3.27 ± 0.11
94 | LKFNHGNYSHLMEKNRI [REC8] | 2.28 ± 0.064
95 | LKGKINNEMKSLQRSKS [SMC1] | 3.11 ± 0.2
96 | LKHYNGYDINYISKIGE [SWI1] | 2.07 ± 0.066
97 | LKIFKIFCIDLEVFHHF [SRB8] | 1.67 ± 0.1
98 | LKIHQSHLVVPYCPIAS [YMR129W/POM152] | 1.24 ± 0.12
99 | LKKELKLLAKELEEQES [SMC2] | 2.9 ± 0.09
100 | LKKKVVDPFTRKEWFDI [RPS1B] | 3.18 ± 0.045
101 | LKKLQSDIESANNQEYD [SMC1] | 3.16 ± 0.062
